Test results as given in PMC6851296, “Atomic-resolution crystal structures of the immune protein conglutinin from cow reveal specific interactions of its binding site with N-acetylglucosamine” (The Journal of Biological Chemistry, 2019).

Biological target: the molecule itself
Assay: SEC; Superdex-75 HR 10/300, Tris buffer with 10 mM EDTA, 1 ml/min; calibrated with alcohol dehydrogenase, BSA, carbonic anhydrase and cytochrome C; nondissociating conditions

B1: recombinant fragment of bovine conglutinin consisting of the CRD and neck regions (rfBC, residues 199-351 of native conglutinin) (domain or fragment)
chain: GSAEANALKQRVTILDGHLRRFQNAFSQYKKAVLFPDGQAVGEKIFKTAGAVKSYSDAEQLCREAKGQLASPRSSAENEAVTQMVRAQEKNAYLSMNDISTEGRFTYPTGEILVYSNWADGEPNNSDEGQPENCVEIFPDGKWNDVPCSKQLLVICEF
notes: vector-derived first five residues (GLAEV in conglutinin); bovine conglutinin, neck plus carbohydrate recognition domain, the C-terminal 153 residues Asn-199 to Phe-351; also called trimeric recombinant neck plus CRD conglutinin fragment; recombinant homotrimeric fragment of conglutinin
stoichiometry N: 3
